Source: patent US20180339041A1 (Kyowa Kirin, published 2018)

T1: C-terminally FLAG-tagged human Gas6 recombinant protein (hGas6-F) (human, UniProt Q14393 31-678, gamma-carboxylated glutamic acid residues in the Gla domain (producer cells co-express rat VKOR and human GGCX); positions not given)
T1 construct: also called human Gas6-F; human Gas6 protein
T1 sequence: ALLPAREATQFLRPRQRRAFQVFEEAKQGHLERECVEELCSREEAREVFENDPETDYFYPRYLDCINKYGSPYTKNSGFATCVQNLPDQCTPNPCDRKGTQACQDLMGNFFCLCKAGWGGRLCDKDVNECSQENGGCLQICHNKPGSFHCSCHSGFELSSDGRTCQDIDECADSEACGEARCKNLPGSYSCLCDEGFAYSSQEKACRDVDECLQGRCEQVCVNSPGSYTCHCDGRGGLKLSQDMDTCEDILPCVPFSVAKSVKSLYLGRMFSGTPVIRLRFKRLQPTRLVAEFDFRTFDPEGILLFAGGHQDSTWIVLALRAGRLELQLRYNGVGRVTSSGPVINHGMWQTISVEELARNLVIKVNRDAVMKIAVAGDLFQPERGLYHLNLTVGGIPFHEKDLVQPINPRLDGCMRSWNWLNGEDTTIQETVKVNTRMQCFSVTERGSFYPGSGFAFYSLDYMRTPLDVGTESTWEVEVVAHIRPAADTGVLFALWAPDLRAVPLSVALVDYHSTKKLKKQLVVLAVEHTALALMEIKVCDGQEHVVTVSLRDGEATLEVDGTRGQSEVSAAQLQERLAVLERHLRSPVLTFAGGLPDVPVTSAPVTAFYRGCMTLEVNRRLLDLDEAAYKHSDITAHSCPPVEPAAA


Molecular target: T1, C-terminally FLAG-tagged human Gas6 …
Experiment: SPR Biacore T100, captured antibody, Gas6 analyte, first test
Method: An anti-human IgG antibody was immobilized on a CM5 sensor chip (manufactured by GE Healthcare Japan Corp.) using Human Antibody Capture Kit (manufactured by GE Healthcare Japan Corp.) according to the attached manual. Each test antibody adjusted to 1 μg/mL was added for 10 seconds at a flow rate of 10 μL/min to flow cells. […] The measurement was performed by the […] method. The obtained sensorgram was analyzed using Bia Evaluation Software (manufactured by GE Healthcare Japan Corp.), and the kinetic constant of each antibody was calculated.

Binder	Kd	koff	kon
hzKM5320 LV5HV3a antibody (antibody, V domains shown, Humanized; variant human IgG4 constant region (EU S228P, L235E, R409K), human kappa; also called A-21) VH: QVQLVQSGSELKKPGASVKVSCKASGYTFTNYGMNWVRQAPGQGLKWMGWINTETGEPTYSDDFKGRFVFSLDTSVSTAYLQISSLKAEDTATYFCAREDGYYGTLDYWGQGTTVTVSS VL: DIVMTQSPDSLAVSLGERVTINCKASQSVSNDVAWYQQKPGQSPKVLIYYASNRYTGVPDRFSGSGSGTDFTFTISSVQAEDVAVYFCQQDYSSPWTFGQGTKLEIK	< 2.3 nM	0.000177 s⁻¹	> 77100 M⁻¹ s⁻¹
hzKM5320 LV0HV8 antibody (antibody, V domains shown, Humanized; variant human IgG4 constant region (EU S228P, L235E, R409K), human kappa; also called A-10) VH: QIQLVQSGPELKKPGASVKISCKASGYTFTNYGMNWVKQAPGQGLKWMGWINTETGEPTYSDDFKGRFVFSLDTSVTTAYLQISSLKAEDTATYFCAREDGYYGTLDYWGQGTTVTVSS VL: DVVMTQSPDSLAVSLGERVTINCKASQSVSNDVAWYQQKPGQSPKLLIYYASNRYTGVPDRFSGSGSGTDFTLTISSLQAEDVAVYYCQQDYSSPWTFGQGTKLEIK	< 9.79 nM	0.000714 s⁻¹	> 72900 M⁻¹ s⁻¹
hzKM5320 LV1aHV0 antibody (antibody, V domains shown, Humanized; variant human IgG4 constant region (EU S228P, L235E, R409K), human kappa; also called A-03) VH: QVQLVQSGSELKKPGASVKVSCKASGYTFTNYGMNWVRQAPGQGLEWMGWINTETGEPTYSDDFKGRFVFSLDTSVSTAYLQISSLKAEDTAVYYCAREDGYYGTLDYWGQGTTVTVSS VL: DVVMTQSPDSLAVSLGERVTINCKASQSVSNDVAWYQQKPGQSPKLLIYYASNRYTGVPDRFSGSGSGTDFTLTISSLQAEDVAVYFCQQDYSSPWTFGQGTKLEIK	< 12.6 nM	0.000829 s⁻¹	> 65700 M⁻¹ s⁻¹
hzKM5320 LV1bHV8 antibody (antibody, V domains shown, Humanized; variant human IgG4 constant region (EU S228P, L235E, R409K), human kappa; also called A-12) VH: QIQLVQSGPELKKPGASVKISCKASGYTFTNYGMNWVKQAPGQGLKWMGWINTETGEPTYSDDFKGRFVFSLDTSVTTAYLQISSLKAEDTATYFCAREDGYYGTLDYWGQGTTVTVSS VL: DVVMTQSPDSLAVSLGERVTINCKASQSVSNDVAWYQQKPGQSPKLLIYYASNRYTGVPDRFSGSGSGTDFTLTISSVQAEDVAVYYCQQDYSSPWTFGQGTKLEIK	< 11 nM	0.000856 s⁻¹	> 77900 M⁻¹ s⁻¹
hzKM5320 LV2aHV0 antibody (antibody, V domains shown, Humanized; variant human IgG4 constant region (EU S228P, L235E, R409K), human kappa; also called A-05) VH: QVQLVQSGSELKKPGASVKVSCKASGYTFTNYGMNWVRQAPGQGLEWMGWINTETGEPTYSDDFKGRFVFSLDTSVSTAYLQISSLKAEDTAVYYCAREDGYYGTLDYWGQGTTVTVSS VL: DVVMTQSPDSLAVSLGERVTINCKASQSVSNDVAWYQQKPGQSPKLLIYYASNRYTGVPDRFSGSGSGTDFTLTISSVQAEDVAVYFCQQDYSSPWTFGQGTKLEIK	< 15.2 nM	0.00105 s⁻¹	> 69100 M⁻¹ s⁻¹
hzKM5320 LV2aHV8 antibody (antibody, V domains shown, Humanized; variant human IgG4 constant region (EU S228P, L235E, R409K), human kappa; also called A-13) VH: QIQLVQSGPELKKPGASVKISCKASGYTFTNYGMNWVKQAPGQGLKWMGWINTETGEPTYSDDFKGRFVFSLDTSVTTAYLQISSLKAEDTATYFCAREDGYYGTLDYWGQGTTVTVSS VL: DVVMTQSPDSLAVSLGERVTINCKASQSVSNDVAWYQQKPGQSPKLLIYYASNRYTGVPDRFSGSGSGTDFTLTISSVQAEDVAVYFCQQDYSSPWTFGQGTKLEIK	< 10.2 nM	0.0008 s⁻¹	> 78600 M⁻¹ s⁻¹
hzKM5320 LV2bHV0 antibody (antibody, V domains shown, Humanized; variant human IgG4 constant region (EU S228P, L235E, R409K), human kappa; also called A-06) VH: QVQLVQSGSELKKPGASVKVSCKASGYTFTNYGMNWVRQAPGQGLEWMGWINTETGEPTYSDDFKGRFVFSLDTSVSTAYLQISSLKAEDTAVYYCAREDGYYGTLDYWGQGTTVTVSS VL: DVVMTQSPDSLAVSAGERVTINCKASQSVSNDVAWYQQKPGQSPKLLIYYASNRYTGVPDRFSGSGSGTDFTFTISSLQAEDVAVYYCQQDYSSPWTFGQGTKLEIK	< 14.4 nM	0.00104 s⁻¹	> 72600 M⁻¹ s⁻¹

Next, values leading:

Kd	koff	kon	Binder
< 9.64 nM	0.000694 s⁻¹	> 72000 M⁻¹ s⁻¹	hzKM5320 LV1aHV8 antibody (antibody, V domains shown, Humanized; variant human IgG4 constant region (EU S228P, L235E, R409K), human kappa; also called A-11) VH: QIQLVQSGPELKKPGASVKISCKASGYTFTNYGMNWVKQAPGQGLKWMGWINTETGEPTYSDDFKGRFVFSLDTSVTTAYLQISSLKAEDTATYFCAREDGYYGTLDYWGQGTTVTVSS VL: DVVMTQSPDSLAVSLGERVTINCKASQSVSNDVAWYQQKPGQSPKLLIYYASNRYTGVPDRFSGSGSGTDFTLTISSLQAEDVAVYFCQQDYSSPWTFGQGTKLEIK
< 9.77 nM	0.000791 s⁻¹	> 81000 M⁻¹ s⁻¹	hzKM5320 LV2bHV8 antibody (antibody, V domains shown, Humanized; variant human IgG4 constant region (EU S228P, L235E, R409K), human kappa; also called A-14) VH: QIQLVQSGPELKKPGASVKISCKASGYTFTNYGMNWVKQAPGQGLKWMGWINTETGEPTYSDDFKGRFVFSLDTSVTTAYLQISSLKAEDTATYFCAREDGYYGTLDYWGQGTTVTVSS VL: DVVMTQSPDSLAVSAGERVTINCKASQSVSNDVAWYQQKPGQSPKLLIYYASNRYTGVPDRFSGSGSGTDFTFTISSLQAEDVAVYYCQQDYSSPWTFGQGTKLEIK
< 2.91 nM	0.000209 s⁻¹	> 71900 M⁻¹ s⁻¹	hzKM5320 LV3HV0 antibody (antibody, V domains shown, Humanized; variant human IgG4 constant region (EU S228P, L235E, R409K), human kappa; also called A-07) VH: QVQLVQSGSELKKPGASVKVSCKASGYTFTNYGMNWVRQAPGQGLEWMGWINTETGEPTYSDDFKGRFVFSLDTSVSTAYLQISSLKAEDTAVYYCAREDGYYGTLDYWGQGTTVTVSS VL: DVVMTQSPDSLAVSLGERVTINCKASQSVSNDVAWYQQKPGQSPKVLIYYASNRYTGVPDRFSGSGSGTDFTFTISSLQAEDVAVYFCQQDYSSPWTFGQGTKLEIK
< 2.3 nM	0.000174 s⁻¹	> 75600 M⁻¹ s⁻¹	hzKM5320 LV3HV8 antibody (antibody, V domains shown, Humanized; variant human IgG4 constant region (EU S228P, L235E, R409K), human kappa; also called A-15) VH: QIQLVQSGPELKKPGASVKISCKASGYTFTNYGMNWVKQAPGQGLKWMGWINTETGEPTYSDDFKGRFVFSLDTSVTTAYLQISSLKAEDTATYFCAREDGYYGTLDYWGQGTTVTVSS VL: DVVMTQSPDSLAVSLGERVTINCKASQSVSNDVAWYQQKPGQSPKVLIYYASNRYTGVPDRFSGSGSGTDFTFTISSLQAEDVAVYFCQQDYSSPWTFGQGTKLEIK
< 2.85 nM	0.00019 s⁻¹	> 66700 M⁻¹ s⁻¹	hzKM5320 LV5HV0 antibody (antibody, V domains shown, Humanized; variant human IgG4 constant region (EU S228P, L235E, R409K), human kappa; also called A-08) VH: QVQLVQSGSELKKPGASVKVSCKASGYTFTNYGMNWVRQAPGQGLEWMGWINTETGEPTYSDDFKGRFVFSLDTSVSTAYLQISSLKAEDTAVYYCAREDGYYGTLDYWGQGTTVTVSS VL: DIVMTQSPDSLAVSLGERVTINCKASQSVSNDVAWYQQKPGQSPKVLIYYASNRYTGVPDRFSGSGSGTDFTFTISSVQAEDVAVYFCQQDYSSPWTFGQGTKLEIK
< 2.48 nM	0.000184 s⁻¹	> 74100 M⁻¹ s⁻¹	hzKM5320 LV5HV1 antibody (antibody, V domains shown, Humanized; variant human IgG4 constant region (EU S228P, L235E, R409K), human kappa; also called A-19) VH: QVQLVQSGSELKKPGASVKVSCKASGYTFTNYGMNWVRQAPGQGLKWMGWINTETGEPTYSDDFKGRFVFSLDTSVSTAYLQISSLKAEDTAVYYCAREDGYYGTLDYWGQGTTVTVSS VL: DIVMTQSPDSLAVSLGERVTINCKASQSVSNDVAWYQQKPGQSPKVLIYYASNRYTGVPDRFSGSGSGTDFTFTISSVQAEDVAVYFCQQDYSSPWTFGQGTKLEIK
< 2.01 nM	0.000153 s⁻¹	> 76300 M⁻¹ s⁻¹	hzKM5320 LV5HV3b antibody (antibody, V domains shown, Humanized; variant human IgG4 constant region (EU S228P, L235E, R409K), human kappa; also called A-22) VH: QIQLVQSGSELKKPGASVKISCKASGYTFTNYGMNWVRQAPGQGLEWMGWINTETGEPTYSDDFKGRFVFSLDTSVSTAYLQISSLKAEDTAVYFCAREDGYYGTLDYWGQGTTVTVSS VL: DIVMTQSPDSLAVSLGERVTINCKASQSVSNDVAWYQQKPGQSPKVLIYYASNRYTGVPDRFSGSGSGTDFTFTISSVQAEDVAVYFCQQDYSSPWTFGQGTKLEIK
< 1.79 nM	0.00014 s⁻¹	> 77900 M⁻¹ s⁻¹	hzKM5320 LV5HV3c antibody (antibody, V domains shown, Humanized; variant human IgG4 constant region (EU S228P, L235E, R409K), human kappa; also called A-23) VH: QVQLVQSGPELKKPGASVKVSCKASGYTFTNYGMNWVKQAPGQGLKWMGWINTETGEPTYSDDFKGRFVFSLDTSVSTAYLQISSLKAEDTAVYYCAREDGYYGTLDYWGQGTTVTVSS VL: DIVMTQSPDSLAVSLGERVTINCKASQSVSNDVAWYQQKPGQSPKVLIYYASNRYTGVPDRFSGSGSGTDFTFTISSVQAEDVAVYFCQQDYSSPWTFGQGTKLEIK
< 2.19 nM	0.000173 s⁻¹	> 79200 M⁻¹ s⁻¹	hzKM5320 LV5HV4 antibody (antibody, V domains shown, Humanized; variant human IgG4 constant region (EU S228P, L235E, R409K), human kappa; also called A-24) VH: QVQLVQSGPELKKPGASVKVSCKASGYTFTNYGMNWVRQAPGQGLKWMGWINTETGEPTYSDDFKGRFVFSLDTSVSTAYLQISSLKAEDTATYFCAREDGYYGTLDYWGQGTTVTVSS VL: DIVMTQSPDSLAVSLGERVTINCKASQSVSNDVAWYQQKPGQSPKVLIYYASNRYTGVPDRFSGSGSGTDFTFTISSVQAEDVAVYFCQQDYSSPWTFGQGTKLEIK
< 1.8 nM	0.000147 s⁻¹	> 81700 M⁻¹ s⁻¹	hzKM5320 LV5HV6 antibody (antibody, V domains shown, Humanized; variant human IgG4 constant region (EU S228P, L235E, R409K), human kappa; also called A-25) VH: QVQLVQSGPELKKPGASVKISCKASGYTFTNYGMNWVKQAPGQGLKWMGWINTETGEPTYSDDFKGRFVFSLDTSVSTAYLQISSLKAEDTATYFCAREDGYYGTLDYWGQGTTVTVSS VL: DIVMTQSPDSLAVSLGERVTINCKASQSVSNDVAWYQQKPGQSPKVLIYYASNRYTGVPDRFSGSGSGTDFTFTISSVQAEDVAVYFCQQDYSSPWTFGQGTKLEIK
